The record followed here is paper PMC6454087 (Frontiers in Immunology, 2019).

First the molecules themselves.
B1: mouse WT sNASP (somatic nuclear autoantigenic sperm protein), B6 allele (natural protein)
chain: MATESTAAAAIAAELVSADKIEDAPAPSTSADKMESLDVDSEAKKLLGLGQKHLVMGDIPAAVNAFQEAASLLGKKYGETANECGEAFFFYGKSLLELARMENGVLGNALEGVHVEEEEGEKTEDESLVENNDNVDETEGSEEEDRENDKAEETPNESVLEKKSLQENEEEEIGNLELAWDMLDLAKIIFKRQETKEAQLYAAQAHLKLGEVSVESENYIQAVEEFQACLSLQEQYLEAHDRLLAETHYQLGLAYGYNSQYDEAVAQFGKSIDVIEKRMAVLHEQMKEAEGSFTEYEKEIEELKELLPEIREKIEDAKESQRSGNVAELALKATLVESSTSGFTPSGAGASVSMIASRKPTDGASSSNCVTDISHLVRKKRKPEEESPRKDDAKKAKQEPEVNGGSGDAVSSGKEVSENMEAEAENQAESQTAEGTVESAATIKSTAC
modifications: Somatic isoform of 448 aa = 773-aa tNASP entry lacking 325 residues (internal testis-specific exon). Junction 137/463 set by homology to human sNASP and the printed length, not printed in the paper. …

In one assay the target is mouse histone H4 (mouse, UniProt P62806 1-103). The assay is described as follows: BLI; Octet K2, 30 C; sNASP WT or variant immobilised on aminopropylsilane (APS) biosensors, histones in assay buffer at various concentrations (62.5 to 1,000 nM shown for H4), association 240 s; n = 4. The note with it: both partners purified.
The target of assay [1] is B1. The description is as above. As to conditions: both partners purified.

Take B1: in the assay with mouse histone H4, binding was characterised by a dissociation constant (Kd) of 40.7 nM and the kon amounted to 1990 M⁻¹ s⁻¹.

B2: mouse histone H1a (natural protein, UniProt P43275 1-213, looked up)
chain: MSETAPVAQAASTATEKPAAAKKTKKPAKAAAPRKKPAGPSVSELIVQAVSSSKERSGVSLAALKKSLAAAGYDVEKNNSRIKLGLKSLVNKGTLVQTKGTGAAGSFKLNKKAESKAITTKVSVKAKASGAAKKPKKTAGAAAKKTVKTPKKPKKPAVSKKTSKSPKKPKVVKAKKVAKSPAKAKAVKPKASKAKVTKPKTPAKPKKAAPKKK
notes: mouse histone H1a (H1.1); source: bought: Lifespan Biosciences
As to B2, in assay [1], the Kd amounted to 387 nM and the on-rate constant (kon) is 10100 M⁻¹ s⁻¹.
